Laboratory results from PMC6130943, “Cytochrome P450 and O-methyltransferase catalyze the final steps in the biosynthesis of the anti-addictive alkaloid ibogaine from Tabernanthe iboga” (The Journal of Biological Chemistry, 2018).

Tested on: CC[C@H]1C[C@@H]2C[C@H]3c4[nH]c5ccc(O)cc5c4CCN(C2)[C@@H]13
Test: HPLC-MS of ibogaine formation, Michaelis-Menten fit
Assay type: biochemical, Tabernanthe iboga
Details: SAM, HEPES, pH 9 (relative-rate assays adjusted to optimum), 30 °C, 25 min
Text: HPLC-MS of ibogaine formation, Michaelis-Menten fit on N10OMT (noribogaine-10-O-methyltransferase; OMT candidate 1)

N10OMT (noribogaine-10-O-methyltransferase; OMT candidate 1) (Tabernanthe iboga)
Km: 73.6 ± 28.5 µM | Vmax: 0.00084 µmol/min/mg | kcat: 0.000548 ± 7.23e-05 s⁻¹ | kcat/Km: 7.45 ± 3.05 M⁻¹ s⁻¹
